According to patent US20260210939A1, “MODIFIED OLFACTORY RECEPTORS” (GIVAUDAN SA, priority 2022, published 2026):

Target: T1, OR7C1 (Homo sapiens, UniProt O76099, D296E/G302K/M297V/R299D/T295K/V126I)
T1 construct: Improved functional expression of modified OR-genes containing the truncated, optimized C-terminus; expressed in transfected cells; host or cells: HEK293T stably expressing human RTP1S(V227I) and RTP2(L220R)
T1 sequence (O76099 with tags, fused parts or gaps V126I/T295K/D296E/M297V/R299D/G302K): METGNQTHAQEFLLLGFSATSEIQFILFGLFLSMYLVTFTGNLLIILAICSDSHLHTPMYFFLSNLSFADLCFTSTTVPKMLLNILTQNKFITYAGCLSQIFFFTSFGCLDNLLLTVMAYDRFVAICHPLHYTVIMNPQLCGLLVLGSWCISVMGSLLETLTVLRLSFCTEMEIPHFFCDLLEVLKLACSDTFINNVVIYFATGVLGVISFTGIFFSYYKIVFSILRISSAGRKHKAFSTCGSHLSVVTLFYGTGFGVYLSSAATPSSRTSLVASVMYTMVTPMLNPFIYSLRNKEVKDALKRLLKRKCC
Assay: CRE-luciferase assay, HEK293T cells expressing OR7C1 (wild-type / modified C-terminus)
Type: cell-based
Conditions: OR7C1 variant, 1 μM Ambermax
From the text: To test for possible variants of the sequence […]CC (SEQ ID NO: 86) leading to similar improved functional expression, different point mutations were introduced into the first 16 amino acids of this sequence (corresponding to […], SEQ ID NO: 10) and the variants were fused after the TM7 with OR7C1. […] The test concentrations were selected to fall into the range of partial activity of the wild-type sequence.

| Substance | % of the activation by the optimized sequence RNKEVKDALKRLLKRKCC [%] |
| --- | --- |
| SEQ ID NO: 96 (RNKEVKAALKRLLKRKCC; source 1..18: note = C-terminal domain sequence) | 115.3 |
| SEQ ID NO: 192 (RNKEVKDAMKRLLKRKCC; source 1..18: note = C-terminal domain sequence) | 27.0 |
| Pro Gly | 111.9 |
| SEQ ID NO: 88 (RNKEIKDALKRLLKRKCC; source 1..18: note = C-terminal domain sequence) | 66.5 |
| Tyr Arg | 127.8 |
| SEQ ID NO: 106 (RNKEVKDALKRLLKRRCC; source 1..18: note = C-terminal domain sequence) | 104.1 |
| Gly Gly | 128.9 |
| Pro Pro | 36.2 |
| SEQ ID NO: 188 (RQKEVKDALKRLLKRKCC; source 1..18: note = C-terminal domain sequence) | 28.5 |
| Gly Cys | 126.8 |
| SEQ ID NO: 189 (RNHEVKDALKRLLKRKCC; source 1..18: note = C-terminal domain sequence) | 16.2 |
| SEQ ID NO: 104 (RNKEVKDALKRLLRRKCC; source 1..18: note = C-terminal domain sequence) | 96.3 |
| SEQ ID NO: 158 (RNKEVKDALKRLLKRKCRRRKK; source 1..22: note = C-terminal domain sequence) | 168.8 |
| SEQ ID NO: 92 (RNKEVKEALKRLLKRKCC; source 1..18: note = C-terminal domain sequence) | 81.3 |
| SEQ ID NO: 101 (RNKEVKDALKKLLKRKCC; source 1..18: note = C-terminal domain sequence) | 86.8 |
| Glu Arg | 85.0 |
| SEQ ID NO: 157 (RNKEVKDALKRLLKRKCRRRRR; source 1..22: note = C-terminal domain sequence) | 204.3 |
| Tyr Pro | 221.7 |
| Val Met | 1.3 |
| SEQ ID NO: 190 (RNKEVKDGLKRLLKRKCC; source 1..18: note = C-terminal domain sequence) | 4.6 |
| Arg Arg | 167.7 |
| SEQ ID NO: 322 (RNKEVKFALKRLLKRKCC; source 1..18: note = C-terminal domain sequence) | 41.1 |
| Pro Ala | 75.6 |
| SEQ ID NO: 329 (RNKEVKTALKRLLKRKCC; source 1..18: note = C-terminal domain sequence) | 129.9 |
| SEQ ID NO: 102 (RNKEVKDALKRLIKRKCC; source 1..18: note = C-terminal domain sequence) | 88.6 |
| SEQ ID NO: 326 (RNKEVKMALKRLLKRKCC; source 1..18: note = C-terminal domain sequence) | 107.6 |
| SEQ ID NO: 93 (RNKEVKNALKRLLKRKCC; source 1..18: note = C-terminal domain sequence) | 95.3 |
